Assays:
Test in all cases: immunostaining of cells or tissue
HBx of HBV genotype C = HBx of HBV genotype C (Hepatitis B virus genotype C, strain …, UniProt P0C686, strain)
HBx of HBV genotype D = HBx of HBV genotype D (Hepatitis B virus genotype D, strain …, UniProt P03165, strain)
HBx of HBV genotype A = HBx of HBV genotype A (Hepatitis B virus genotype A, strain …, UniProt P69713, strain)

Measured: binding result

B1: 9D11 mAb (antibody, V domains shown)
VH: QVQLQQPGAELVRPGASVKLSCKASGYSFTSFWISWVKQRPGQGLEWIAMIHPSDNGIRFNQKFKDKATLTVDKSSSTAYMQLNSPTSEDSAVYFCARAGTATFTYWGQGTLVTVSA
VL: DIQMTQTTSSLSVSLGDRVTISCRASQDISNYLNWYQQKPDGIVKLLIYYTSRLHSGVPSRFSGSGSGTDYSLTISNLEQEDLATYFCQQGNALPWTFGGGTKLEIK
binds: all assays above

From article PMC5743566 (Theranostics, 2018)
